According to publication PMC5118791, “Beyond Antibodies: Development of a Novel Protein Scaffold Based on Human Chaperonin 10” (Scientific Reports, 2016):

How the values were obtained:
[1] = molecular target: the molecule itself; assay: SEC; analytical SE-HPLC, TSK G3000SWXL, 0.1 M phosphate pH 7.8, 0.2 M NaCl, 1 mg/mL, 0.8 mL/min, 25 °C; calibrated with BioRad standards
[2] = molecular target: T1, recombinant Factor VIIa (rFVIIa); assay: BLI; Octet Red, Ni-NTA biosensors, 37 °C, 1000 rpm; association 180 sec, dissociation 10 min; 1:1 model, global fit; the legend of Figure 4b says rFVIIa was immobilised; conditions: both partners purified
T1 construct: rFVIIa (NovoSeven RT); no His tag on rFVIIa is stated anywhere; also called NovoSeven RT; source: bought: NovoSeven RT (named for the ELISA)

[3] = molecular target: T1, recombinant Factor VIIa (rFVIIa); assay: cell-based or functional assay

T1 sequence (P08709 whole entry): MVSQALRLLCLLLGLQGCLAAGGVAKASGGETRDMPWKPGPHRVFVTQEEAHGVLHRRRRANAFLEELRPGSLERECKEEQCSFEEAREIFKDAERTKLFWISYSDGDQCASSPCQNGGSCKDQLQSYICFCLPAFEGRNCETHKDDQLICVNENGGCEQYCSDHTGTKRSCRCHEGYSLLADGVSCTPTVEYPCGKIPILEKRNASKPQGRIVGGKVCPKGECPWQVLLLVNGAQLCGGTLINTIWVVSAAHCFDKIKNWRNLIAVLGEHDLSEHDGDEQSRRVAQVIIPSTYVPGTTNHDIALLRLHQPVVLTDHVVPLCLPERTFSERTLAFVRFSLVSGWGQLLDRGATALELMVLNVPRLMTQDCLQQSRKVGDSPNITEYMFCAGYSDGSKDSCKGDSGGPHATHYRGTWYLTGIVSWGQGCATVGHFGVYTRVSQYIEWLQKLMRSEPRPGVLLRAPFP

Binder | stoichiometry N [1] | Kd [2] [nM] | inhibition of FX activation by TF-FVIIa (chromogenic substrate S-2765), IC50 [3] [nM] | inhibition of amidolytic activity of FVIIa (Chromozym t-PA) in the presence of TF, IC50 [3] [nM] | inhibition of amidolytic activity of FVIIa (Chromozym t-PA) without TF, IC50 [3] [nM] | prothrombin time (PT) in citrated human plasma, 0.001-100 μM, fold prolongation over normal clotting time [3] [fold]
CE76-E5 (hCpn10 scaffold displaying the E-76 peptide with E5 linkers) (designed binder) AGQAFRKFLPLFDRVLVERSAAETVALCDDPRVDRWYCQFVEGEKSQGKVLQATVVAVGSGSKGKGGEIQPVSVKVGDKVLLPEYGGTKVVLDDKDYFLFRDGDILGKYVD | 7 | 5.5 | – | – | – | –
CE76-P1 (hCpn10 scaffold displaying the E-76 peptide with P1 linkers) (designed binder) AGQAFRKFLPLFDRVLVERSAAAPALCDDPRVDRWYCQFVEGAAPGKVLQATVVAVGSGSKGKGGEIQPVSVKVGDKVLLPEYGGTKVVLDDKDYFLFRDGDILGKYVD | 7 | 3 | 1.5 | 6.8 | 8.4 | 7
